Test results from paper PMC5662131.

Columns and labels:
[1] = biological target: T1, (His)6-KcsA, K+ channel from Streptomyces lividans (Streptomyces lividans), P0A334; assay: SDS-PAGE with Western blot; conditions: remark: other sources report otherwise
T1 chain: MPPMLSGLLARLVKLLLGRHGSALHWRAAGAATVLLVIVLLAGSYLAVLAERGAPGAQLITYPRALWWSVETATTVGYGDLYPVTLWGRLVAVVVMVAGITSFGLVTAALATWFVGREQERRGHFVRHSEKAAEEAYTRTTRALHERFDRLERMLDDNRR

[2] = biological target: T1, (His)6-KcsA, K+ channel from …; assay: SEC; conditions: remark: other sources report otherwise

B1: (His)6-KcsA, K+ channel from Streptomyces lividans, P0A334 1-160 (natural protein)
chain: MPPMLSGLLARLVKLLLGRHGSALHWRAAGAATVLLVIVLLAGSYLAVLAERGAPGAQLITYPRALWWSVETATTVGYGDLYPVTLWGRLVAVVVMVAGITSFGLVTAALATWFVGREQERRGHFVRHSEKAAEEAYTRTTRALHERFDRLERMLDDNRR
How did the stoichiometry N [1] turn out when B1 was run?
The stoichiometry N was 4.

And the stoichiometry N [2]?
Its stoichiometry N is 4.
